First the molecules themselves.
B1: eGFP-53BP1 (wild-type TP53-binding protein 1 tagged with enhanced green fluorescent protein) [not stated] / itself (parent)
chain: MDPTGSQLDSDFSQQDTPCLIIEDSQPESQVLEDDSGSHFSMLSRHLPNLQTHKENPVLDVVSNPEQTAGEERGDGNSGFNEHLKENKVADPVDSSNLDTCGSISQVIEQLPQPNRTSSVLGMSVESAPAVEEEKGEELEQKEKEKEEDTSGNTTHSLGAEDTASSQLGFGVLELSQSQDVEENTVPYEVDKEQLQSVTTNSGYTRLSDVDANTAIKHEEQSNEDIPIAEQSSKDIPVTAQPSKDVHVVKEQNPPPARSEDMPFSPKASVAAMEAKEQLSAQELMESGLQIQKSPEPEVLSTQEDLFDQSNKTVSSDGCSTPSREEGGCSLASTPATTLHLLQLSGQRSLVQDSLSTNSSDLVAPSPDAFRSTPFIVPSSPTEQEGRQDKPMDTSVLSEEGGEPFQKKLQSGEPVELENPPLLPESTVSPQASTPISQSTPVFPPGSLPIPSQPQFSHDIFIPSPSLEEQSNDGKKDGDMHSSSLTVECSKTSEIEPKNSPEDLGLSLTGDSCKLMLSTSEYSQSPKMESLSSHRIDEDGENTQIEDTEPMSPVLNSKFVPAENDSILMNPAQDGEVQLSQNDDKTKGDDTDTRDDISILATGCKGREETVAEDVCIDLTCDSGSQAVPSPATRSEALSSVLDQEEAMEIKEHHPEEGSSGSEVEEIPETPCESQGEELKEENMESVPLHLSLTETQSQGLCLQKEMPKKECSEAMEVETSVISIDSPQKLAILDQELEHKEQEAWEEATSEDSSVVIVDVKEPSPRVDVSCEPLEGVEKCSDSQSWEDIAPEIEPCAENRLDTKEEKSVEYEGDLKSGTAETEPVEQDSSQPSLPLVRADDPLRLDQELQQPQTQEKTSNSLTEDSKMANAKQLSSDAEAQKLGKPSAHASQSFCESSSETPFHFTLPKEGDIIPPLTGATPPLIGHLKLEPKRHSTPIGISNYPESTIATSDVMSESMVETHDPILGSGKGDSGAAPDVDDKLCLRMKLVSPETEASEESLQFNLEKPATGERKNGSTAVAESVASPQKTMSVLSCICEARQENEARSEDPPTTPIRGNLLHFPSSQGEEEKEKLEGDHTIRQSQQPMKPISPVKDPVSPASQKMVIQGPSSPQGEAMVTDVLEDQKEGRSTNKENPSKALIERPSQNNIGIQTMECSLRVPETVSAATQTIKNVCEQGTSTVDQNFGKQDATVQTERGSGEKPVSAPGDDTESLHSQGEEEFDMPQPPHGHVLHRHMRTIREVRTLVTRVITDVYYVDGTEVERKVTEETEEPIVECQECETEVSPSQTGGSSGDLGDISSFSSKASSLHRTSSGTSLSAMHSSGSSGKGAGPLRGKTSGTEPADFALPSSRGGPGKLSPRKGVSQTGTPVCEEDGDAGLGIRQGGKAPVTPRGRGRRGRPPSRTTGTRETAVPGPLGIEDISPNLSPDDKSFSRVVPRVPDSTRRTDVGAGALRRSDSPEIPFQAAAGPSDGLDASSPGNSFVGLRVVAKWSSNGYFYSGKITRDVGAGKYKLLFDDGYECDVLGKDILLCDPIPLDTEVTALSEDEYFSAGVVKGHRKESGELYYSIEKEGQRKWYKRMAVILSLEQGNRLREQYGLGPYEAVTPLTKAADISLDNLVEGKRKRRSNVSSPATPTASSSSSTTPTRKITESPRASMGVLSGKRKLITSEEERSPAKRGRKSATVKPGAVGAGEFVSPCESGDNTGEPSALEEQRGPLPLNKTLFLGYAFLLTMATTSDKLASRSKLPDGPTGSSEEEEEFLEIPPFNKQYTESQLRAGAGYILEDFNEAQCNTAYQCLLIADQHCRTRKYFLCLASGIPCVSHVWVHDSCHANQLQNYRNYLLPAGYSLEEQRILDWQPRENPFQNLKVLLVSDQQQNFLELWSEILMTGGAASVKQHHSSAHNKDIALGVFDVVVTDPSCPASVLKCAEALQLPVVSQEWVIQCLIVGERIGFKQHPKYKHDYVSH

In the assay the parent is B1. In words: Homo-FRET (FAIM, fluorescence anisotropy imaging) in live DIvA cells. The settings on record: with itself; live DIvA cell nuclei, N = 5 cells, two biological replicates; value is the box median; read off a plot.
In the case of chain 1 Y1258A Y1259A, the screen value was found to be 0.01 delta r.
